Measured values as given in article PMC5583147.

Columns and labels:
C3b-B complex [1] = target: C3b-B complex (UniProt P01024); experiment: SPR; C3b amine-coupled on CM5 chip; Biacore T100, 25 C; HBS-N with 2 mM NiCl2; factor B 54 nM, Lufaxin 1 uM, together or Lufaxin after formation of C3b-B
C3b-B complex [2] = target: C3b-B complex (UniProt P01024); experiment: SPR; C3b amine-coupled on CM5 chip; Biacore T100, 25 C; HBS-N (10 mM HEPES pH 7.4, 150 mM NaCl) with 2 mM MgCl2; factor B 54 nM, factor D 20 nM, Lufaxin up to 1 uM injected in combinations
C3b = C3b (UniProt P01024); experiment: SPR; C3b amine-coupled on CM5 chip; Biacore T100, 25 C; HBS-N with 2 mM NiCl2; factor B 54 nM, Lufaxin 1 uM, together or Lufaxin after formation of C3b-B

Sequence of Lufaxin (Q5WPU8 24-301 limits assumed): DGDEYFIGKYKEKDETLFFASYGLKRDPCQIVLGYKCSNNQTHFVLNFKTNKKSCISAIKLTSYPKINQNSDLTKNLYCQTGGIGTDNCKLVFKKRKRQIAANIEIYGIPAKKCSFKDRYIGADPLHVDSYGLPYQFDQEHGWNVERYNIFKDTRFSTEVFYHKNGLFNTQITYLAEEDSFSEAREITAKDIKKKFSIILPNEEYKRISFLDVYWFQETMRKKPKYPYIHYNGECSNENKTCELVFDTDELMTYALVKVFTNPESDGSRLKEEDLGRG
Sequence of UniProt P01024 (P01024 23-667, chain 1 of 2): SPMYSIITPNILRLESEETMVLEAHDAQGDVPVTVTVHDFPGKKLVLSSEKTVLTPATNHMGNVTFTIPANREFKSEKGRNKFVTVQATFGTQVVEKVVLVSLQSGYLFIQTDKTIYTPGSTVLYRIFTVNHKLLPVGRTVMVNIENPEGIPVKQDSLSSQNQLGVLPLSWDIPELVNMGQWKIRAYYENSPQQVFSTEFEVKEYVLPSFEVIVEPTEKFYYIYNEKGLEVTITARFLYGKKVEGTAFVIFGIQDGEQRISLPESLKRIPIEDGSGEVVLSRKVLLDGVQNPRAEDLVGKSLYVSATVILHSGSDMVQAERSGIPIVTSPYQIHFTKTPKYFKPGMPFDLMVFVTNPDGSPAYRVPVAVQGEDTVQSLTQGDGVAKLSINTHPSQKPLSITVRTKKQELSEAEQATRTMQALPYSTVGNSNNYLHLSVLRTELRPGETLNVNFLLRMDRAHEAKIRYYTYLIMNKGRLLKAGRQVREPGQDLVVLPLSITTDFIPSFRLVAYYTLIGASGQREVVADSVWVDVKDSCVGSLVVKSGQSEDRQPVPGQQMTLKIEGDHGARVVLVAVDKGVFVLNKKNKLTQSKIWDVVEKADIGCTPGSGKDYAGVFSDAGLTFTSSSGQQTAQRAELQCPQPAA
Sequence of UniProt P01024 (P01024 749-1663, chain 2 of 2): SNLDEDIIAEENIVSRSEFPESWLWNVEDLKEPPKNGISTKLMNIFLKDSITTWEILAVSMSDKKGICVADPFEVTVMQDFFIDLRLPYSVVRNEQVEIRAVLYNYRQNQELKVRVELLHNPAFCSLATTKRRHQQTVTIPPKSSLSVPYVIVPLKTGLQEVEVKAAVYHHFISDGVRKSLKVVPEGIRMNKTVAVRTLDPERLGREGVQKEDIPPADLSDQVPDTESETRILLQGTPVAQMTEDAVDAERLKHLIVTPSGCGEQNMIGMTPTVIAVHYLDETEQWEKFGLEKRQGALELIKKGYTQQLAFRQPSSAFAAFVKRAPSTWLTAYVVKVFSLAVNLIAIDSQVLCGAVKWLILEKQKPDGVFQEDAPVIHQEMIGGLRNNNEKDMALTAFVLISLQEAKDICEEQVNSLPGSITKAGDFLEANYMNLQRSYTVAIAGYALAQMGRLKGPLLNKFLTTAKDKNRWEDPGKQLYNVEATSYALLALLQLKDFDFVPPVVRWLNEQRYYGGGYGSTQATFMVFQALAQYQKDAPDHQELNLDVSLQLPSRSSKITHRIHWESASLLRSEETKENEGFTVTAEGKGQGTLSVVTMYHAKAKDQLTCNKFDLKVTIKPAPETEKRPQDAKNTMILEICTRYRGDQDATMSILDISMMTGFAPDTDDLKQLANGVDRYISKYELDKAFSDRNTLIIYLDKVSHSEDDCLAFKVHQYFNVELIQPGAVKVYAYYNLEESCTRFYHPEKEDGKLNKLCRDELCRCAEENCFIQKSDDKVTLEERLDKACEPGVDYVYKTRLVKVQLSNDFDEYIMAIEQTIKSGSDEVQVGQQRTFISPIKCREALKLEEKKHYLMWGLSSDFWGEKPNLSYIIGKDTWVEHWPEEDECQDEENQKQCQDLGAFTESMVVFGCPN

Row | Substance | half-time of dissociation of C3b-B-Lufaxin from the C3b surface (Ni2+) (C3b-B complex [1]) [s] | half-time of dissociation of C3b-B-Lufaxin from the C3b surface (Mg2+) (C3b-B complex [2]) [s] | half-time of dissociation of C3b-B (Ni2+) (C3b) [s]
1 | Lufaxin (natural protein) | 400 | 135 | 
2 | factor B (natural protein) |  |  | 600
